# Assay results: patent publication US20250206839A1, “METHODS, COMPOSITIONS AND USES FOR SEMA7A MONOCLONAL ANTIBODIES” (THE REGENTS OF THE UNIVERSITY OF COLORADO, A BODY CORPORATE, priority 2022, published 2025)
# T1: purified SEMA7A (Homo sapiens, UniProt O75326)
# T1 construct: Fc; made in house; host or cells: cells stably transfected with SEMA7A-Fc plasmid (human breast cancer cells); purified from medium
# T1 sequence (O75326 45-648 limits assumed): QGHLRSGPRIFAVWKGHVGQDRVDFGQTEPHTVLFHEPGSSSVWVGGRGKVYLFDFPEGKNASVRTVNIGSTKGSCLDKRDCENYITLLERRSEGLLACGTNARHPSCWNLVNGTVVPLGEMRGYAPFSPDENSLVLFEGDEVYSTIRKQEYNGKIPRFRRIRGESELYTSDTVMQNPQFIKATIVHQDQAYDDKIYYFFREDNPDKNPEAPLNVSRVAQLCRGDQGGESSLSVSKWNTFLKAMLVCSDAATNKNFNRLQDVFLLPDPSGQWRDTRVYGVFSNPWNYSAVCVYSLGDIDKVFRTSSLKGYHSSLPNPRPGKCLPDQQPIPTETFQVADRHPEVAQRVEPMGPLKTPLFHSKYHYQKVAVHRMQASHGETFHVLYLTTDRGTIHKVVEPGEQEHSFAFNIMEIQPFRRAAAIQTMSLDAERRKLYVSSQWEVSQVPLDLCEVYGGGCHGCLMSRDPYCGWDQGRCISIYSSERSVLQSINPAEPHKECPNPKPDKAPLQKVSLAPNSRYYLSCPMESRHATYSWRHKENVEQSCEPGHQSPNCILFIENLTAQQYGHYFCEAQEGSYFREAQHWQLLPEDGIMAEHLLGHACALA
# Key:
# pSTAT3 in MDA468 cells = experiment: Western blot for phosphorylation of STAT3; format: cell-based, human; conditions: MDA468, low SEMA7A
# Text: (§1) In another exemplary method the human triple negative breast cancer cell lines with low (MDA468) or high (MDA231) levels of SEMATA were again treated with SmAbH1 (CUH1) or commercially available monoclonal antibody-based inhibitors of an integrin receptor for SEMA7A (α6β1) and then evaluated using Western blot for phosphorylation of STAT3 (pSTAT3).
# pSTAT3 in MDA231 cells = experiment: Western blot for phosphorylation of STAT3; format: cell-based, human; conditions: MDA231, high SEMA7A
# Text: as §1
# purified SEMA7A = molecular target: T1, purified SEMA7A; experiment: ELISA binding to purified SEMA7A; conditions: serial dilution
# Procedure: The MultiSorp ELISA 96 well ELISA plate (Thermo Scientific) was coated with 100 μl per well of 50 μg/ml of purified SEMA7A in Coating Buffer A (Thermo Scientific CB07100) and allowed to attach overnight with gentle rocking at 4 degrees. For the peptide competition, half of the antibody was incubated in an Eppendorf tube overnight at a ratio of 1:10 with the SEMA7A peptide on a rotator at 4 degrees. The plate was washed with 200 μl per well of 1× wash buffer (Thermo Scientific WB01) and blocked with 200 μl 1× assay buffer (Thermo Scientific DS98200) for 2 hours and room temp with gentle rocking. 1× assay buffer was removed and a 200 μl serial dilution of SMEA7A mAb in 1× assay buffer was made from columns 1 through 9, with column 10-12 getting 1× assay buffer only. The plate was incubated overnight with gentle rocking at 4 degrees. The plate was washed twice with 200 μl of 1× wash buffer. 100 μl of 200 ng/ml Goat Anti-Mouse IgG HRP (Abcam 97040) in 1× assay buffer was added to columns 1-11, with column 12 getting 1× assay buffer only. The plate was incubated for 2 hours with gentle rocking at room temp. The plate was washed four times with 200 μl 1× wash buffer. 150 μl SuperSignal Femto for ELISA (Thermo Scientific) was mixed 1:1 added to each well and mixed for 1 min and then left to rock at room temperature for 30 minutes. The absorbance was read at 425 nm on a microplate reader.
# SEMA7A isoforms = experiment: Western blot recognition of SEMA7A isoforms; format: binding
# SEMA7A expressing cells = experiment: Mammosphere formation and cell death in vitro; format: cell-based
# Procedure: In another exemplary method, it was observed that SEMA7A was sufficient to promote stem cell phenotypes, including mammosphere formation, anchorage independent growth and resistance to chemotherapy, which is a property of cancer stem cells. Finally. SEMA7A expressing cells display increased functions and markers of cancer stem cells.
# MCF10A and MCF12A cells were labeled with CellTrace Violet (ThermoFisher: #C34557) for 20 min at 37° C., according to the manufacturer's instructions. A sample of labeled cells was analyzed by flow cytometry to determine labeling efficiency and fluorescent intensity at time of seeding. Single cells were seeded at a density of 4000 cells/well in μltra-low attachment 24-well plates to induce mammosphere formation. Cells were cultured in normal culture media for 7 days and were subsequently counted, dissociated enzymatically in Accutase, (Stem Cell Technologies, Vancouver, Canada: #07922), and analyzed by flow cytometry. See flow cytometry methods for detailed information.
# [1] = test system: MCF10ADCIS GFP human breast cancer cells; experiment: DCIS mouse model, tumor growth and invasion; format: in vivo; conditions: IP every third day from day 21
# Procedure: DCIS model: Female SHO mice, aged 6-8 weeks old, are injected with 250,000 MCF10ADCIS GFP human breast cancer cells into both #4 mammary fat pads, then palpated and measured three times a week with digital calipers and tumor visualization is aided by use of the illumatool light source with GFP filter so we can accurately measure tumors. Treatment with SmAb started at day 21 post injection. SmAb treatment is given by IP injection every third day. Weights are taken every treatment day and mice are monitored for weight loss and other health/behavior changes.
# [2] = test system: human breast cancer MCF7A SEMA7A overexpressing cells; experiment: Immunofluorescence labeling of TAPI-1 treated SEMA7A overexpressing cells; format: cell-based; conditions: antibody 250:1, FITC secondary, cells treated with TAPI-1
# Procedure: In another exemplary method, the ability of anti-SEMA7A monoclonal antibodies to bind and label cells was tested. In an exemplary method, human breast cancer MCF7A SEMA7A overexpressing cells were treated with TAPI-1, a TACE/ADAM17 inhibitor that blocks SEMA7A shedding from the cell surface, and then incubated with an anti-SEMA7A monoclonal antibody (250:1) before visualization with a FITC secondary antibody (1000:1).
# Cells were fixed with 2% PFA or 1:1 acetone-methanol for 30 minutes at 4C, before washing once with PBS and blocking with 1% BSA in PBST for 1 hour at room temperature. After removal of the blocking solution, cells were incubated in primary antibody in 1% BSA in PBST overnight at 4° C. The primary antibody (SmAbH1 (lot 022823) was prepared at a 1:250 concentration by adding 4 μL stock solution to ImL 1% BSA in PBS. After primary removal cells were washed with PBS for 10 min×3 and incubated in secondary antibody in 1% BSA in PBS for 1-2 hours at room temperature (covered from light). The secondary antibody (Donkey anti-Mouse IgG Alexa Fluor 488 (Invitrogen A-21202)) was prepared at 1:1000 concentration by adding 1 μL into ImL 1% BSA in PBS. After removal of secondary antibody cells were washed with PBS for 10 min×3. VECTASHIELD Antifade Mounting Medium with DAPI (Vector Labs H-1200-10) was added and the cells were sealed with a glass coverslip. […]
molecule,measurement,setting,value
"SmAbH1: mouse monoclonal antibody against SEMA7A generated using the 10-mer immunizing peptide … (SEQ ID NO: 2) (antibody, V domains shown) VH: QVKLQESGTVLARPGASVKMSCKASVYSFTSYWMHWVKQRPGQGLEWIGAIYPGNSDTSYNQKFKGKAKLTAVTSASTAYMELSSLTNEDSAVYYCTRGGAPTMITAYYAMDYWGQGTSVTVSS VL: DIQMTQTTSSLSASLGDRVTISCRASQDISNYLNWYQQKPDGTVKLLIYYTSRLHSGVPSRFSGSGSGTDYSLTISNLEQEDIATYFCQQGNTLPWTFGGGTKLEIKR",downstream STAT3 activation (pSTAT3),pSTAT3 in MDA468 cells,blocking block downstream STAT3 activation similar to integrin blockade
same,downstream STAT3 activation (pSTAT3),pSTAT3 in MDA231 cells,blocking block downstream STAT3 activation similar to integrin blockade
same,binding to purified SEMA7A,purified SEMA7A,bound to purified SEMA7A in a dose dependent manner
same,recognition of SEMA7A isoforms,SEMA7A isoforms,recognition of all three isoforms of SEMATA
same,cell death,SEMA7A expressing cells,induce cell death
same,mammosphere formation,SEMA7A expressing cells,reduce mammosphere formation
same,tumor growth and invasion of ductal carcinoma in situ (DCIS) lesions,[1],block or inhibit tumor growth and invasion
same,labeling of cells,[2],labeled the cell lines treated with TAPI-I
